Bridges are numbered along the chain shown (N, C = ends). Where no end group is shown, it is not given here.
Legend:
Format in all cases: biochemical
plasma kallikrein [1] = molecular target: T1, plasma kallikrein (Homo sapiens, UniProt P03952); test: Apparent equilibrium dissociation constant (Ki*) with plasma kallikrein; conditions: 25° C., pH 7.5, 0.7 mM S2302, 1.5 h incubation; at least 3 independent measurements; read-out: Plasma Kallikrein Ki*
T1 construct: Human plasma kallikrein and Factor XIIa were purchased; purchased Enzyme Research Laboratories, Inc. (South Bend, Ind.)
Method: Reactions (200 μL) were carried out in microtiter plates and the rate substrate (0.7 mM S2302) was monitored at 405 nm following a 1.5 h incubation. Plots of the fractional rate versus inhibitor concentration were fit by nonlinear regression analysis to Equation 1 to determine apparent equilibrium dissociation constants (Ki *):

Factor XIa [2] = molecular target: T2, Factor XIa (Homo sapiens, UniProt P03951); test: Apparent equilibrium dissociation constant (Ki*) with FXIa; conditions: at least 3 independent measurements
T2 construct: purchased Haematologic Technologies Inc. (Essex Jct., Vt.)
Method: (§3) Serine proteases (1 to 20 nM) were assayed in the presence of 100 nM inhibitor. […] The degree to which FXIa was inhibited by selected inhibitors including the consensus mutants was further investigated by measuring the Ki *.

plasma kallikrein [3] = molecular target: T1, plasma kallikrein; test: Specificity assay, plasma kallikrein; conditions: 100 nM inhibitor; plasma kallikrein 3.5 nM, 0.7 mM S2302; 2 h room temperature
Method: (§4) Aliquots (30 μL) of various inhibitors diluted to 500 nM were incubated with each protease (100 μL) in the appropriate buffer. After incubation of the substrate/inhibitor mixes at room temperature for 2 h, the appropriate substrate (20 μL) was added, and the absorbance at 405 nm was monitored. […] The FXIa assay also contained 1 mg/mL BSA. The concentration of FXIa throughout refers to the concentration of active sites. For this experiment, the concentrations of thrombin, TF-FVIIa, FXa, FXIa, FXIIa, and plasmin are approximate and are determined based upon the manufacturers' specifications.
as §3

Factor XIa [4] = molecular target: T2, Factor XIa; test: Specificity assay, Factor XIa; conditions: 100 nM inhibitor; FXIa […], 0.7 mM S2366, 1 mg/mL BSA
Method: as §4, §3

[5] = molecular target: T3, TF-FVIIa (tissue factor-Factor VIIa) (Homo sapiens, UniProt P08709); test: Specificity assay, TF-FVIIa; conditions: 100 nM inhibitor; TF 77 nM-FVIIa 14 nM, 0.7 mM S2366
T3 construct: purchased Haematologic Technologies Inc. (FVIIa); TF made in house; host or cells: E. coli (TF 1-243)
Method: as §4, §3

[6] = tested on: intrinsic coagulation pathway; test: Activated partial thromboplastin time (APTT) clotting assay in normal human plasma; conditions: 1 μM inhibitor
Method: (§1) FIG. 5A and FIG. 5B. […] The uninhibited clotting times were 33.6 sec and 14 sec for the APTT and PT, respectively
(§2) Clotting times for normal human plasma were performed using an MLA Electra 800 Coagulometer (Medical Laboratory Automation, Inc. Pleasantville, N.Y.) and Dade reagents (Baxter Health Care Corp., Miami Fla.). The clotting time was determined by optical assessment.
For the activated partial thromboplastin time (APTT) assays, the activation time was set at 120 sec and acquisition time at 300 to 600 sec depending on the expected outcome of the assay. Citrated normal human plasma and inhibitor were incubated together. The sample (plasma and inhibitor) and activator (Actin FS) were automatically pipetted and incubated is together for 2 min at 37° C., then CaCl2 was added and clotting time determined by means of optical assessment. The total incubation time of inhibitor with plasma was ca. 3 min before addition of activator, and 5 min before addition of CaCl2.

[7] = tested on: extrinsic coagulation pathway; test: Prothrombin time (PT) clotting assay, tissue factor initiated; conditions: normal human plasma, TF initiated
Method: as §1, §2

Factor XIIa = molecular target: T4, Factor XIIa (Homo sapiens, UniProt P00748); test: Specificity assay, Factor XIIa; conditions: 100 nM inhibitor; 0.7 mM S2302
T4 construct: purchased Enzyme Research Laboratories, Inc. (South Bend, Ind.)
T4 sequence (P00748 373-615 limits assumed): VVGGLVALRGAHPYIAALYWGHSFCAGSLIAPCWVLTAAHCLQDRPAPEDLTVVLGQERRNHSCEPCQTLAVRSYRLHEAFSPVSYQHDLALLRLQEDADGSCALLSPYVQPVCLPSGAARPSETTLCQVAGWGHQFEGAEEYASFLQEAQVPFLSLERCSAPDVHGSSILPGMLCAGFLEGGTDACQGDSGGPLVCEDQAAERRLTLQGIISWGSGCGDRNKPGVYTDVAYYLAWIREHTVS
T4 sequence (P00748 20-372 limits assumed): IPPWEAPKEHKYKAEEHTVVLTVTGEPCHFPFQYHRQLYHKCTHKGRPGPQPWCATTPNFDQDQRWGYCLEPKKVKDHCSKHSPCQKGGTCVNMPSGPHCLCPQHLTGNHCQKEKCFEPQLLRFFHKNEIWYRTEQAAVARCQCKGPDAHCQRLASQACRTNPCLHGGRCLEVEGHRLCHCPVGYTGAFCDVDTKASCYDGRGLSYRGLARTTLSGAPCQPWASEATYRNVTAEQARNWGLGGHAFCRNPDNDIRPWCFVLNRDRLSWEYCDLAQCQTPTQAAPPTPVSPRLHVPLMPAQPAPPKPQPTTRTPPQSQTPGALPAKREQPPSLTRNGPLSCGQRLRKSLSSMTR
Method: (§5) Aliquots (30 μL) of various inhibitors diluted to 500 nM were incubated with each protease (100 μL) in the appropriate buffer. After incubation of the substrate/inhibitor mixes at room temperature for 2 h, the appropriate substrate (20 μL) was added, and the absorbance at 405 nm was monitored. […] For this experiment, the concentrations of thrombin, TF-FVIIa, FXa, FXIa, FXIIa, and plasmin are approximate and are determined based upon the manufacturers' specifications.
(§6) Serine proteases (1 to 20 nM) were assayed in the presence of 100 nM inhibitor.

Factor Xa = molecular target: T5, Factor Xa (Homo sapiens, UniProt P00742); test: Specificity assay, Factor Xa; conditions: 100 nM inhibitor; FXa 2.5 nM, 0.7 mM Spectrozyme fXa
T5 construct: purchased Haematologic Technologies Inc. (Essex Jct., Vt.)
Method: as §5, §6

thrombin = molecular target: T6, thrombin (Homo sapiens, UniProt P00734); test: Specificity assay, thrombin; conditions: 100 nM inhibitor; thrombin 6.2 nM, 0.7 mM S2366
T6 construct: purchased Haematologic Technologies Inc. (Essex Jct., Vt.)
Method: as §5, §6

plasmin = molecular target: T7, plasmin (Homo sapiens, UniProt P00747); test: Specificity assay, plasmin; conditions: 100 nM inhibitor; for fraction of remaining proteolytic activity, plasmin: plasmin 32 nM, 0.7 mM S2251
T7 construct: Human plasmin, S-2302, S-2251, and S-2366 were purchased from Kabi Vitrum (Sweden); purchased Kabi Vitrum (Sweden)
Method: as §4, §3

activated protein C = molecular target: T8, activated protein C (Homo sapiens, UniProt P04070); test: Specificity assay, activated protein C; conditions: 100 nM inhibitor; activated protein C 7.6 nM, 0.7 mM S2366
T8 construct: purchased Haematologic Technologies Inc. (Essex Jct., Vt.)
T8 sequence (P04070 212-461 limits assumed): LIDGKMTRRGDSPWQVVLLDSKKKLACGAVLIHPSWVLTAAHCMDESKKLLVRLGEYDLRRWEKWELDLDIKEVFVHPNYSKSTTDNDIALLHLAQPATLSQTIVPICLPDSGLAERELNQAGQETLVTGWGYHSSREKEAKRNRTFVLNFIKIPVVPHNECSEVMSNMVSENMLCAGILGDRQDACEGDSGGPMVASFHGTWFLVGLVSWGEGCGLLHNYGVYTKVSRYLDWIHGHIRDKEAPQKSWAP
T8 sequence (P04070 43-197 limits assumed): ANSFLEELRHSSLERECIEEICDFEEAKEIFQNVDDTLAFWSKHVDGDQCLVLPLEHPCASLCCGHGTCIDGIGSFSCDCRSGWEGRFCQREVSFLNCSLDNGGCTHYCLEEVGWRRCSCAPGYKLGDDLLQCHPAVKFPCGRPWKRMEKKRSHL
Method: as §4, §3

T3 sequence (P08709 213-466 limits assumed): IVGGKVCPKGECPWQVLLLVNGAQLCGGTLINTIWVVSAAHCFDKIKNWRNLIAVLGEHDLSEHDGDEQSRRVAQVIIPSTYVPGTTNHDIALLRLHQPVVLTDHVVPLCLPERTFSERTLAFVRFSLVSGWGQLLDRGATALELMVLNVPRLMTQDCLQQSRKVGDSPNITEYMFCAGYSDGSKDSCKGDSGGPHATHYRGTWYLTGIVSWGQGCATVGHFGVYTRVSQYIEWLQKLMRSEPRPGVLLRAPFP
T3 sequence (P08709 61-212 limits assumed): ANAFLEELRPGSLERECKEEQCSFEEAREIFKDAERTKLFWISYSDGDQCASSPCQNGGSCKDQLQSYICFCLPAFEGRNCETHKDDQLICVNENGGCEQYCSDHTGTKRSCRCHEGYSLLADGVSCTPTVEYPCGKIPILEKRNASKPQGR
T3 sequence (P13726 33-275 partner limits assumed): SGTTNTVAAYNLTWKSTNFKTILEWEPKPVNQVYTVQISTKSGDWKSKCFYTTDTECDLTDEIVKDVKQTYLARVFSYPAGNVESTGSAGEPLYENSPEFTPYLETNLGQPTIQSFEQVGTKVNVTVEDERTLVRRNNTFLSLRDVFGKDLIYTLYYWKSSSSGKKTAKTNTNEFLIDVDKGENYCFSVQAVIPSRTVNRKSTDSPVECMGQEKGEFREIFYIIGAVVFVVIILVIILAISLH
T5 sequence (P00742 235-488 limits assumed): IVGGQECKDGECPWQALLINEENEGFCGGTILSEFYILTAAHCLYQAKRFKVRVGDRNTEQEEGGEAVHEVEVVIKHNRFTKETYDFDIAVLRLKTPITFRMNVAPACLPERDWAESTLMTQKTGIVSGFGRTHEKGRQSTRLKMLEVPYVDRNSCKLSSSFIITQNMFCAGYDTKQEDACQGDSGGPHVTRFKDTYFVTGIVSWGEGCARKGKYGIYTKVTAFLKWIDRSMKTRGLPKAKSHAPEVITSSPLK
T5 sequence (P00742 41-179 limits assumed): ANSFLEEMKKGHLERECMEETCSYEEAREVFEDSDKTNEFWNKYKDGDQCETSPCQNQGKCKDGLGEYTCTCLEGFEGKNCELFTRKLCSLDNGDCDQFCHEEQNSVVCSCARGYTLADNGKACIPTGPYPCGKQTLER
T1 sequence (P03952 391-638 limits assumed): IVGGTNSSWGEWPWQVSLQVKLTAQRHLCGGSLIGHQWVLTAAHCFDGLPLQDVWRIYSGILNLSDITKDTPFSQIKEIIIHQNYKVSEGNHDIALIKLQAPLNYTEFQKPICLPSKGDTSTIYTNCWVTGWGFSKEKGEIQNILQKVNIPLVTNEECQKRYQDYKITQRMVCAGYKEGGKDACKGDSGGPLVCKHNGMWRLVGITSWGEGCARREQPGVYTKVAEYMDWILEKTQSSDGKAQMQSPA
T1 sequence (P03952 20-390 limits assumed): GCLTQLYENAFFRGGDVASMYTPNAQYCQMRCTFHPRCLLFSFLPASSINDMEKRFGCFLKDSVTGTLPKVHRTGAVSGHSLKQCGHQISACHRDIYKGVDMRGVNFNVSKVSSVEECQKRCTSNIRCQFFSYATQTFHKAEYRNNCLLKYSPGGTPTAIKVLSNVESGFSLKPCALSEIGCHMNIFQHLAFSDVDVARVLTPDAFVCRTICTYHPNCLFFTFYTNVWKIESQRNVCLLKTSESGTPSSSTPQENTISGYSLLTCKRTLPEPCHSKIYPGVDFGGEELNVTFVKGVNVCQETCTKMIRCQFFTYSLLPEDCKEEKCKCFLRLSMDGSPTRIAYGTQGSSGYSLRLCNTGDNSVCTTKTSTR
T2 sequence (P03951 388-625 limits assumed): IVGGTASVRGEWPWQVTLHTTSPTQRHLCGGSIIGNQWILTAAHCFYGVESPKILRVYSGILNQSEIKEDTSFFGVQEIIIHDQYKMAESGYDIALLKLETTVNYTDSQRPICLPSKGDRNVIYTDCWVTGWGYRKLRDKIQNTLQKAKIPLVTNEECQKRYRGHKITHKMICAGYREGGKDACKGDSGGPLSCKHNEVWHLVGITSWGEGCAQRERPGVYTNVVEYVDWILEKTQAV
T2 sequence (P03951 19-387 limits assumed): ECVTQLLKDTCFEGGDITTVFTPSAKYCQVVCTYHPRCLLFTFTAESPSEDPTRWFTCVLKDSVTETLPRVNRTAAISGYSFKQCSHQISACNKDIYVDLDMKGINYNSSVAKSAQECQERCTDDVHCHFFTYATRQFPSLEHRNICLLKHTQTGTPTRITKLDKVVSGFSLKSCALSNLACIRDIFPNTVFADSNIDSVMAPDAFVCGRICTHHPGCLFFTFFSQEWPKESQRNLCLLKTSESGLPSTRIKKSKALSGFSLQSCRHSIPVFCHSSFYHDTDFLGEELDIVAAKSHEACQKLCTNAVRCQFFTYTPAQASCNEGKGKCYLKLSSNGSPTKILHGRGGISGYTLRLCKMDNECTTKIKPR
T7 sequence (P00747 581-810 limits assumed): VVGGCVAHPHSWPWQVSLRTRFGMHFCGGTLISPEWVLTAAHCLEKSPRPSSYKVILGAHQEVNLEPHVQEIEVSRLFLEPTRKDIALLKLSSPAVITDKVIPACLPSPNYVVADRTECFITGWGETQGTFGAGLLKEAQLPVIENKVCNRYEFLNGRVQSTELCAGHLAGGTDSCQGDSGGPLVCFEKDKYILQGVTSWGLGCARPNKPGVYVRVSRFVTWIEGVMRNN
T7 sequence (P00747 97-580 limits assumed): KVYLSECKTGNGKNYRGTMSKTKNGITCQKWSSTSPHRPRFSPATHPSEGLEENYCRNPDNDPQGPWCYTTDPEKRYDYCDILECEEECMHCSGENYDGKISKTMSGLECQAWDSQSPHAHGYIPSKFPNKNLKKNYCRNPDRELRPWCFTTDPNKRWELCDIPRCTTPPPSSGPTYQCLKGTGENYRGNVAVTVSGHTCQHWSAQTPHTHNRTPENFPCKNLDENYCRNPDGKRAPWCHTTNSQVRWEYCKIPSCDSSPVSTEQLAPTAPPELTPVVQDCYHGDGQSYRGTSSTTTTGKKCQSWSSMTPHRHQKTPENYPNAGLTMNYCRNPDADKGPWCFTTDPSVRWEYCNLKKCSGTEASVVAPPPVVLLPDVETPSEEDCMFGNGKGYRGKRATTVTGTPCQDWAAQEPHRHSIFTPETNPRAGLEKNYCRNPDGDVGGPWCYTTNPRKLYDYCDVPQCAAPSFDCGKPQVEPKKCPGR

Compound: CC(C)[C@H](N)C(=O)N[C@@H](CCCNC(=N)N)C(=O)N[C@@H](CCC(=O)O)C(=O)N[C@H](C(=O)N[C@H]1CSSC[C@@H](C(=O)NCC(=O)N[C@@H](CO)C(=O)N[C@@H](C)C(=O)O)NC(=O)[C@H](C(C)C)NC(=O)[C@H](C)NC(=O)[C@H](C)NC(=O)[C@@H]2CSSC[C@@H]3NC(=O)[C@H](CCCCN)NC(=O)CNC(=O)[C@H](CCC(=O)O)NC(=O)[C@H]([C@@H](C)O)NC(=O)[C@H](C(C)C)NC(=O)[C@H](CC(=O)O)NC(=O)[C@H](Cc4ccccc4)NC(=O)[C@H](Cc4ccc(O)cc4)NC(=O)[C@H](Cc4c[nH]c5ccccc45)NC(=O)[C@H](CCCNC(=N)N)NC(=O)[C@@H]4CCCN4C(=O)[C@H](Cc4c[nH]cn4)NC(=O)[C@H](C)NC(=O)[C@H](C)NC(=O)[C@H](CCCNC(=N)N)NC(=O)[C@H](CSSC[C@H](NC(=O)CNC(=O)CNC(=O)[C@H](Cc4ccc(O)cc4)NC(=O)[C@H](C(C)C)NC(=O)[C@H](Cc4ccccc4)NC(=O)[C@@H]4CCCN4C(=O)[C@H](C)NC3=O)C(=O)NCC(=O)NCC(=O)N[C@@H](CC(N)=O)C(=O)N[C@@H](CCCNC(=N)N)C(=O)N[C@@H](CC(N)=O)C(=O)N[C@@H](CC(N)=O)C(=O)N[C@@H](Cc3ccccc3)C(=O)N[C@@H](CC(=O)O)C(=O)N[C@@H]([C@@H](C)O)C(=O)N[C@@H](CCC(=O)O)C(=O)N[C@@H](CCC(=O)O)C(=O)N[C@@H](Cc3ccc(O)cc3)C(=O)N2)NC(=O)[C@H](Cc2c[nH]cn2)NC(=O)CNC(=O)[C@H](CCC(=O)O)NC(=O)[C@H](CCC(=O)O)NC(=O)[C@H](C)NC(=O)[C@H](CCC(N)=O)NC(=O)[C@H](CCC(=O)O)NC(=O)[C@H](CO)NC1=O)C(C)C [KALI-EV]
- Ki (plasma kallikrein [1]): 0.117 ± 0.059 nM

Compound: APPI: 58 amino acid Kunitz domain from human Alzheimer's disease amyloid β-protein precursor, residues 287-344; here Met52 replaced with Ala [reference compound]
- Ki (Factor XIa [2]): 2.7 ± 1.4 nM
- fraction of remaining proteolytic activity, plasma kallikrein (plasma kallikrein [3]): 0.81
- fraction of remaining proteolytic activity, Factor XIa (Factor XIa [4]): 0.03
- fraction of remaining proteolytic activity, TF · Factor VIIa [5]: 0.60
- fold prolongation of clotting time, APTT [6]: 2.8 fold
- prolongation of clotting time in PT assay (in words) [7]: neither KALI-DY, BPTI, nor APPI appreciably prolonged

Compound: KALI-8: APPI Kunitz domain mutant, R1 LGHCRAAIPR2 FR3 (SEQ ID NO: 3) (VREVCSEQAELGHCRAAIPRWYFDVTEGKCAPFFYGGCGGNRNNFDTEEYCAAVCGSA)
- fraction of remaining proteolytic activity, plasma kallikrein (plasma kallikrein [3]): 0.00
- fraction of remaining proteolytic activity, Factor XIa (Factor XIa [4]): 0.00
- fraction of remaining proteolytic activity, Factor XIIa (Factor XIIa): 1.00
- fraction of remaining proteolytic activity, Factor Xa (Factor Xa): 1.13
- fraction of remaining proteolytic activity, thrombin (thrombin): 0.99
- fraction of remaining proteolytic activity, TF · Factor VIIa [5]: 0.94
- fraction of remaining proteolytic activity, plasmin (plasmin): 0.83
- fraction of remaining proteolytic activity, activated protein C (activated protein C): 0.89

Compound: KALI-13: APPI Kunitz domain mutant, R1 SGHCRAAIPR2 FR3 (SEQ ID NO: 1) (VREVCSEQAESGHCRAAIPRWYFDVTEGKCAPFFYGGCGGNRNNFDTEEYCAAVCGSA)
- fraction of remaining proteolytic activity, plasma kallikrein (plasma kallikrein [3]): 0.00
- fraction of remaining proteolytic activity, Factor XIa (Factor XIa [4]): 0.01
- fraction of remaining proteolytic activity, Factor XIIa (Factor XIIa): 1.00
- fraction of remaining proteolytic activity, Factor Xa (Factor Xa): 0.97
- fraction of remaining proteolytic activity, thrombin (thrombin): 0.96
- fraction of remaining proteolytic activity, TF · Factor VIIa [5]: 0.96
- fraction of remaining proteolytic activity, plasmin (plasmin): 0.65
- fraction of remaining proteolytic activity, activated protein C (activated protein C): 0.90

Compound: KALI-30: APPI Kunitz domain mutant, R1 EGHCRAAILR2 FR3 (SEQ ID NO: 5) (VREVCSEQAEEGHCRAAILRWYFDVTEGKCAPFFYGGCGGNRNNFDTEEYCAAVCGSA)
- fraction of remaining proteolytic activity, plasma kallikrein (plasma kallikrein [3]): 0.00
- fraction of remaining proteolytic activity, Factor XIa (Factor XIa [4]): 0.00
- fraction of remaining proteolytic activity, Factor XIIa (Factor XIIa): 0.92
- fraction of remaining proteolytic activity, Factor Xa (Factor Xa): 0.68
- fraction of remaining proteolytic activity, thrombin (thrombin): 1.00
- fraction of remaining proteolytic activity, TF · Factor VIIa [5]: 1.02
- fraction of remaining proteolytic activity, plasmin (plasmin): 0.53
- fraction of remaining proteolytic activity, activated protein C (activated protein C): 0.81

Compound: KALI-46: APPI Kunitz domain mutant, R1 EGRCRASILR2 FR3 (SEQ ID NO: 33) (VREVCSEQAEEGRCRASILRWYFDVTEGKCAPFFYGGCGGNRNNFDTEEYCAAVCGSA)
- fraction of remaining proteolytic activity, plasma kallikrein (plasma kallikrein [3]): 0.00
- fraction of remaining proteolytic activity, Factor XIa (Factor XIa [4]): 0.00
- fraction of remaining proteolytic activity, Factor XIIa (Factor XIIa): 0.97
- fraction of remaining proteolytic activity, Factor Xa (Factor Xa): 1.02
- fraction of remaining proteolytic activity, thrombin (thrombin): 0.99
- fraction of remaining proteolytic activity, TF · Factor VIIa [5]: 0.86
- fraction of remaining proteolytic activity, plasmin (plasmin): 0.64
- fraction of remaining proteolytic activity, activated protein C (activated protein C): 0.83

Compound: KALI-48: APPI Kunitz domain mutant, R1 TGHCRAAIPR2 FR3 (SEQ ID NO: 2) (VREVCSEQAETGHCRAAIPRWYFDVTEGKCAPFFYGGCGGNRNNFDTEEYCAAVCGSA)
- fraction of remaining proteolytic activity, plasma kallikrein (plasma kallikrein [3]): 0.00
- fraction of remaining proteolytic activity, Factor XIa (Factor XIa [4]): 0.01
- fraction of remaining proteolytic activity, Factor XIIa (Factor XIIa): 0.99
- fraction of remaining proteolytic activity, Factor Xa (Factor Xa): 0.55
- fraction of remaining proteolytic activity, thrombin (thrombin): 0.99
- fraction of remaining proteolytic activity, TF · Factor VIIa [5]: 0.95
- inhibition of plasmin (plasmin): > 60%
- fraction of remaining proteolytic activity, plasmin (plasmin): 0.23
- fraction of remaining proteolytic activity, activated protein C (activated protein C): 0.92

Compound: VREVCSEQAEDGHCRAAHPRWYFDVTEGKCAPFFYGGCGGNRNNFDTEEYCAAVCGSA (disulfide 5-55, 14-38, 30-51) [KALI-D]
- Ki (plasma kallikrein [1]): 0.025 ± 0.022 nM
- Ki (Factor XIa [2]): 5.7 ± 7 nM

Source: patent publication US5780265A, “Kunitz type plasma kallikrein inhibitors” (Genentech, Inc., priority 1995, dated 1998)
